{"source": "paper PMC8141872", "target": "GST-fused PINCH-1 LIM5 domain (residues 249-325) (human), P48059", "sequence (P48059 249-325)": "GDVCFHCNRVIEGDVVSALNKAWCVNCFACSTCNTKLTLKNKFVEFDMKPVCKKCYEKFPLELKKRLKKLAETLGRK", "test": "BLI; BLItz; GST-fused PINCH protein or GST (0.05 mg/ml) loaded on anti-GST biosensor, Rsu-1 WT or mutant in the mobile phase; 20 mM Tris pH 7.5, 150 mM NaCl, 1 mg/ml BSA, 0.05% Tween-20; 1:1 global fit; at least three measurements", "details": "remark: other sources report otherwise"}
{"binder": "Rsu-1 triple mutant R2W (Phe71Arg, Arg165Trp, Asp166Arg), Q15404 1-277 (natural protein) MSKSLKKLVEESREKNQPEVDMSDRGISNMLDVNGLFTLSHITQLVLSHNKLTMVPPNIAELKNLEVLNFRNNQIEELPTQISSLQKLKHLNLGMNRLNTLPRGFGSLPALEVLDLTYNNLSENSLPGNFFYLTTLRALYLSDNDFEILPPDIGKLTKLQILSLWRNDLISLPKEIGELTQLKELHIQGNRLTVLPPELGNLDLTGQKQVFKAENNPWVTPIADQFQLGVSHVFEYIRSETYKYLYGRHMQANPEPPKKNNDKSKKISRKPLAAKNR", "values": [{"measurement": "Kd", "value": 33.3, "unit": "µM"}]}
